From patent publication US20030211964, “Method of inhibiting pathogenicity of infectious agents” (Massachusetts Institute of Technology, published 2003)

Columns and labels:
[1] = molecular target: T1, Zα domain of ADAR1 (hZαADAR1) (Homo sapiens) (UniProt P55265); assay: SPR; details: partial bromination (stabilises Z form); Z-DNA stabilised by bromination
T1 sequence: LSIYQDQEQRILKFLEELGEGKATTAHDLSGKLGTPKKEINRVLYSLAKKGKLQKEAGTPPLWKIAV

[2] = molecular target: T2, ZαADAR1 Y177A Y177A (Homo sapiens) (UniProt P55265); assay: SPR; details: partial bromination (stabilises Z form); Z-DNA stabilised by bromination
T2 sequence: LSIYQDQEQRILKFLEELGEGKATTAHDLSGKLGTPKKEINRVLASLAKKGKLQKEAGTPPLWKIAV

[3] = molecular target: T3, ZαADAR1 Y177F Y177F (Homo sapiens) (UniProt P55265); assay: SPR; details: partial bromination (stabilises Z form); Z-DNA stabilised by bromination
T3 sequence: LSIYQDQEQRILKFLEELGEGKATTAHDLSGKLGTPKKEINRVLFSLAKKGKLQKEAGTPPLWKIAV

ZαADAR1 Q186A = molecular target: T4, ZαADAR1 Q186A (Homo sapiens, UniProt P55265 SEQ:1-67, Q186A); assay: CD at 255 nm; rate comparable to wild type
T4 sequence: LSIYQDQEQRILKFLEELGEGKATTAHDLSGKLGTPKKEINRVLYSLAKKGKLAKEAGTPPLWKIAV

ZαADAR1 E171A = molecular target: T5, ZαADAR1 E171A (Homo sapiens, UniProt P55265 SEQ:1-67, E171A); assay: CD at 255 nm; rate comparable to wild type
T5 sequence: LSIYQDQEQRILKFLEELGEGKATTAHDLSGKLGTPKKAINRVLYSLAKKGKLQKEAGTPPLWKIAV

[4] = molecular target: T6, Zβ domain of ADAR1 (hZβADAR1) (Homo sapiens, UniProt P55265 SEQ:1-62); assay: CD at 255 nm; no change over time
T6 sequence: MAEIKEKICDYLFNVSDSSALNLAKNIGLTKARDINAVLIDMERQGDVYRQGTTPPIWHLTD

[5] = molecular target: T7, Zα domain of ADAR1 (hZαADAR1) (Homo sapiens, UniProt P55265 SEQ:1-67); assay: CD at 255 nm; rapid, complete B-to-Z conversion; 90 uM bp DNA, 30 uM protein
T7 sequence: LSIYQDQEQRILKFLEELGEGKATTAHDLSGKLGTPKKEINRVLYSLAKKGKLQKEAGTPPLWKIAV

With partially brominated poly(dG-dC) the Kd [1] was 40 nM, the Kd [2] was 700 nM and the Kd [3] was 350 nM.

B1: d(CG)6 (dsDNA)
DNA 1: CGCGCGCGCGCG
DNA 2: CGCGCGCGCGCG
B1: binds (ZαADAR1 Q186A); binds (ZαADAR1 E171A); no binding [4]. B1: binds [5].
